# Data from paper PMC2628428 (Molecular Microbiology, 2008).
# B1: CetB (natural protein, UniProt Q0P967 1-165, looked up)
# chain: MSREIFLQEDSLITSKTDLKGKIVYANDDFLKYAGYTMGEVLNKPHNIVRHEEMPKTVFKYLWDYMKEGKEIFAYVKNKTKDNNYYWVFANVTPSIDVNNNIIGYYSVRRMPNKSAISTIESLYSDLLRAEQQQGLNKGVEMLKNFCKDADKTYNELIFSLQEAK
# Target: the molecule itself
# Experiment: cross-linking
protein,measurement,value
B1,stoichiometry N,2
